Laboratory results reported in the supplement of paper PMC9233669.
Fewer inactive variants are shown than the library holds.

Key:
biotinyl-Leu-oxazolone = assay: self-aminoacylation, catalytic enhancement (BLO) (fold over background); higher = more active; k-Seq, kA / k0A0; sequences stand for … in GGGAAUGGAUCCACAUCUACGAAUUC…UUCACUGCAGACUUGACGAAGCUG
Outline: (§1)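 Working in 50 μL HEPES/NaCl/KCl/MgCl2/CaCl2 buffer with 5% acetonitrile at pH 6.9–7.0, mutagenized RNA pools (0.43 μM; 21-nt variable region) were reacted with 2–1250 μM of each biotinyl-aminoacyl-oxazolone for 90 minutes at room temperature. Streptavidin capture followed, with quantification by triplicate qPCR and Illumina sequencing. Catalytic enhancement is reported as median kA over the uncatalyzed rate, the low-activity peak of a bimodal Gaussian fit to the data.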

biotinyl-Met-oxazolone = assay: self-aminoacylation, catalytic enhancement (BMO) (fold over background); higher = more active; k-Seq, kA / k0A0; sequences stand for … in GGGAAUGGAUCCACAUCUACGAAUUC…UUCACUGCAGACUUGACGAAGCUG
Outline: as §1

biotinyl-Trp-oxazolone = assay: self-aminoacylation, catalytic enhancement (BWO) (fold over background); higher = more active; k-Seq, kA / k0A0; sequences stand for … in GGGAAUGGAUCCACAUCUACGAAUUC…UUCACUGCAGACUUGACGAAGCUG
Outline: as §1

biotinyl-Phe-oxazolone = assay: self-aminoacylation, catalytic enhancement (BFO) (fold over background); higher = more active; k-Seq, kA / k0A0; sequences stand for … in GGGAAUGGAUCCACAUCUACGAAUUC…UUCACUGCAGACUUGACGAAGCUG
Outline: as §1

biotinyl-Ile-oxazolone = assay: self-aminoacylation, catalytic enhancement (BIO) (fold over background); higher = more active; k-Seq, kA / k0A0; sequences stand for … in GGGAAUGGAUCCACAUCUACGAAUUC…UUCACUGCAGACUUGACGAAGCUG
Outline: as §1

biotinyl-Val-oxazolone = assay: self-aminoacylation, catalytic enhancement (BVO) (fold over background); higher = more active; k-Seq, kA / k0A0; sequences stand for … in GGGAAUGGAUCCACAUCUACGAAUUC…UUCACUGCAGACUUGACGAAGCUG
Outline: as §1

Sequence	self-aminoacylation (biotinyl-Leu-oxazolone)	self-aminoacylation (biotinyl-Met-oxazolone)	self-aminoacylation (biotinyl-Trp-oxazolone)	self-aminoacylation (biotinyl-Phe-oxazolone)	self-aminoacylation (biotinyl-Ile-oxazolone)	self-aminoacylation (biotinyl-Val-oxazolone)
AUUCUUCAAACAAUCGGUCUG [Fam1A.1 aminoacylation ribozyme variant]	0.682	0.63	1.27	1.66	0.672	0.663
AUUACCCAGGUCAUGGAGUGA [Fam2.1 aminoacylation ribozyme variant]	4.67	3.83	4.7	8.43	2.85	3.01
CUACUUGAAACAAACGGUCUG [Fam1A.1 aminoacylation ribozyme variant]	0.826	1.05	1.03	0.858	1.02	0.985
AAUCACCUAGGUCAUCGGGGG [Fam2.2 aminoacylation ribozyme variant]	3.66	3.21	3.96	10.6	2.91	2.77
AGUAACCUGGUCAUCGAGUGA [Fam2.1 aminoacylation ribozyme variant]	5.02	5.06	4.62	16.8	3.32	3.25
AUUACCCAGGUCAUCAAGUGA [Fam2.1 aminoacylation ribozyme variant]	1.97	1.97	2.63	3.35	1.47	1.59
CCAUACUUCAAGCAAUCGGUA [Fam1B.1 aminoacylation ribozyme variant]	1.1	1.22	1.1	1.04	1.33	1.26
CUACUUCUAACAAUCGGUCUG [Fam1A.1 aminoacylation ribozyme variant]	0.585	0.608	0.532	0.785	0.658	0.693
AUUCACGUAGGUCACCGGGUG [Fam2.2 aminoacylation ribozyme variant]	8.29	7.45	7.15	62.5	5.08	5.08
CUACCUCAAACAAUCGGUCGG [Fam1A.1 aminoacylation ribozyme variant]	1.55	1.5	1.78	1.56	1.28	1.25
AUUACCCUGGUCCUCGAGCGA [Fam2.1 aminoacylation ribozyme variant]	1.25	1.97	1.68	3.24	1.46	1.77
CUACUUUUAACAAUCGGUCUG [Fam1A.1 aminoacylation ribozyme variant]	0.713	0.921	0.516	0.864	0.888	0.802
AUUCACCUAAGUCAUCGGUUG [Fam2.2 aminoacylation ribozyme variant]	1.23	1.14	0.969	0.716	1.06	1.24
AAUCACCUAGGACAUCGGGUG [Fam2.2 aminoacylation ribozyme variant]	3.27	4.09	5.94	19.1	3.91	3.32
AUUACCCUGGACAUAGAGUGA [Fam2.1 aminoacylation ribozyme variant]	15	15.5	15.6	100	6.45	6.12
AUUACCCUGCGCAUCGAGUGA [Fam2.1 aminoacylation ribozyme variant]	5.76	5.86	6.75	20.5	2.03	2.56
AUGCAGCUAGGUCAUCGGGUG [Fam2.2 aminoacylation ribozyme variant]	4.37	3.73	3.92	24.9	2.95	3.61
AUUCACCUCGGUCAUCUGGUG [Fam2.2 aminoacylation ribozyme variant]	4.16	3.29	3.2	29.2	2.17	2.16
AUUCACCCAGGUCAUCGGGUG [Fam2.2 aminoacylation ribozyme variant]	5.86	4.83	4.53	34.2	3.26	3.53
AAGUUUGCUAAUAGCCGCAAA [Fam3.1 aminoacylation ribozyme variant]	1.38	1.86	1.3	1.38	1.92	1.58
AUUCACCUAGGUCAUCGGUAG [Fam2.2 aminoacylation ribozyme variant]	0.606	0.838	0.372	0.533	0.626	0.836
AUUCCCCUAUGUCAUCGGGUG [Fam2.2 aminoacylation ribozyme variant]	23.5	19.2	18.4	154	12.2	10.9
AUUAACCUAGGUCAUCGGCUG [Fam2.2 aminoacylation ribozyme variant]	1.35	1.49	1.57	4.37	1.35	1.59
AAGUUUGCUAUUAGUCUCAAG [Fam3.1 aminoacylation ribozyme variant]	0.928	0.976	0.975	1.66	0.998	1.07
AAGUUUCCUAUUAGUCGCAAG [Fam3.1 aminoacylation ribozyme variant]	1.22	1.24	1.35	1.87	1.29	1.32
AGGACCCUGGUCAUCGAGUGA [Fam2.1 aminoacylation ribozyme variant]	10.9	10.5	10.7	36.7	4.59	5.05
